Columns and labels:
Experiment in all cases: […]; 5 mM HEPES pH 7.5, 80 mM KCl, 20 °C; […]
Conditions in all cases: both partners purified
[1] = target: T1, SARS-CoV-2 N protein residues 1–364 (SARS-CoV-2, UniProt P0DTC9 1-364)
T1 construct: also called N^1–364

[2] = target: T2, SARS-CoV-2 N protein residues 49–364 (SARS-CoV-2, UniProt P0DTC9 49-364)
T2 construct: also called N^49–364

[3] = target: T3, SARS-CoV-2 N protein residues 49–419 (SARS-CoV-2, UniProt P0DTC9 49-419)
T3 construct: also called N^49–419

Measured: binding result

B1: soluble C-terminal domain of SARS-CoV-2 membrane (M) protein (aa 104–222 of 222) fused to GFP (domain or fragment)
chain: ARTRSMWSFNPETNILLNVPLHGTILTRPLLESELVIGAVILRGHLRIAGHHLGRCDIKDLPKEITVATSRTLSYYKLGASQRVAGDSGFAAYSRYRIGNYKLNTDHSSSSDNIALLVQ
notes: also called GFP-M^104–222
binds: [1] | [2] | [3]
